Reference: US20240049668A1 (VILMORIN AND CIE, published 2024)
Where a chain is given by its changes, count along the chain named. Names may count otherwise.

B1: TM-2-2 variant pJL 511_1 (767 S, 769 A, 848 R) (receptor)
chain: MAEILLTSVINKSVEIAGNLLIQEGKRLYWLKEDIDWLQREMRHIRSYVDNAKAKEAGGDSRVKNLLKDIQELAGDVEDLLDDFLPKIQQSNKFNYCLKRSSFADEFAMEIEKIKRRVVDIDRIRKTYNIIDTDNNNDDCVLLDRRRLFLHADETEIIGLDDDFNMLQAKLLNQDLHYGVVSIVGMPGLGKTTLAKKLYRLIRDQFECSGLVYVSQQPRASEILLDIAKQIGLTEQKMKENLEDNLRSLLKIKRYVILLDDIWDVEIWDDLKLVLPECDSKVGSRMIITSRNSNVGRYIGGESSLHALQPLESEKSFELFTKKIFNFDDNNSWANASPDLVNIGRNIVGRCGGIPLAIVVTAGMLRARERTEHAWNRVLESMGHKVQDGCAKVLALSYNDLPIASRPCFLYFGLYPEDHEIRAFDLINMWIAEKFIVVNSGNRREAEDLAEDVLNDLVSRNLIQLAKRTYNGRISSCRIHDLLHSLCVDLAKESNFFHTAHDAFGDPGNVARLRRITFYSDNVMIEFFRSNPKLEKLRVLFCFAKDPSIFSHMAYFDFKLLHTLVVVMSQSFQAYVTIPSKFGNMTCLRYLRLEGNICGKLPNSIVKLTRLETIDIDRRSLIQPPSGVWESKHLRHLCYRDYGQACNSCFSISSFYPNIYSLHPNNLQTLMWIPDKFFEPRLLHRLINLRKLGILGVSNSTVKMLSIFSPVLKALEVLKLSFSSDPSEQIKLSSYPHIAKLHLNVNRTMALNSQSFPPNLIKLTLASFAVDRYILAVLKTFPKLRKLKMFICKYNEEKMDLSGEANGYSFPQLEVLHIHSPNGLSEVTCTDDVSMPKLKKLLLTGFHRRISLSERLKKLSK
B2: TM-2-2 variant pJL 511_8 (767 D, 769 A, 848 R) (receptor)
chain: B1 chain with S767D
B3: TM-2-2 variant pJL 511_5 (767 Y wt, 769 S wt, 848 R) (receptor)
chain: B1 chain with S767Y, A769S
B4: TM-2-2 variant pJL 511_3 (767 Y, 769 A, 848 R) (receptor)
chain: B1 chain with S767Y
B5: TM-2-2 variant pJL 511_2 (767 S, 848 R) (receptor)
chain: B1 chain with A769S
B6: TM-2-2 variant pJL 511_12 (767 D, 848 R) (receptor)
chain: B1 chain with S767D, A769S
B7: TM-2-2 variant L11_15 (767 L) (receptor)
chain: B1 chain with S767L, A769S, R848C
B8: TM-2-2 variant L11_1 (767 R) (receptor)
chain: B1 chain with S767R, A769S, R848C
B9: TM-2-2 variant L11_16 (767 G) (receptor)
chain: B1 chain with S767G, A769S, R848C
B10: TM-2-2 variant L11_20 (767 V) (receptor)
chain: B1 chain with S767V, A769S, R848C
B11: TM-2-2 protein (product of the Tm-2-2 gene) (receptor)
chain: B1 chain with S767Y, A769S, R848C
B12: TM-2-2 variant L11_19 (767 N) (receptor)
chain: B1 chain with S767N, A769S, R848C
B13: TM-2-2 variant L12_A (769 A) (receptor)
chain: B1 chain with S767Y, R848C
B14: TM-2-2 variant L12_16 (769 E) (receptor)
chain: B1 chain with S767Y, A769E, R848C
B15: TM-2-2 variant L12_12 (769 R) (receptor)
chain: B1 chain with S767Y, A769R, R848C
B16: TM-2-2 variant L12_3 (769 V) (receptor)
chain: B1 chain with S767Y, A769V, R848C
B17: TM-2-2 variant L12_11 (769 G) (receptor)
chain: B1 chain with S767Y, A769G, R848C
B18: TM-2-2 variant L12_4 (769 F) (receptor)
chain: B1 chain with S767Y, A769F, R848C
B19: TM2-14-25 encoded by Tm2-14-25 (receptor)
chain: B1 chain with F655L, S767Y, A769S
B20: TM2-467 encoded by Tm2-467 (receptor)
chain: B1 chain with S767Y, A769S
B21: TM-2-2 variant pJL 466 (F655L) (receptor)
chain: B1 chain with F655L, S767Y, A769S, R848C
B22: TM-2-2 variant pJL 480Q (848 R, 857 Q) (receptor)
chain: B1 chain with S767Y, A769S, K857Q
B23: TM-2-2 variant pJL 480R (848 R, 857 R) (receptor)
chain: B1 chain with S767Y, A769S, K857R
B24: TM-2-2 variant pJL 480E (848 R, 857 E) (receptor)
chain: B1 chain with S767Y, A769S, K857E
B25: TM-2-2 variant pJL 480T (848 R, 857 T) (receptor)
chain: B1 chain with S767Y, A769S, K857T
B26: TM-2-2 variant pJL 480I (848 R, 857 I) (receptor)
chain: B1 chain with S767Y, A769S, K857I

Biological target: T1, Movement Protein of ToBRFV (Tomato Brown Rugose Fruit Virus …, UniProt A0A0S2SZW1 1-266)
T1 sequence: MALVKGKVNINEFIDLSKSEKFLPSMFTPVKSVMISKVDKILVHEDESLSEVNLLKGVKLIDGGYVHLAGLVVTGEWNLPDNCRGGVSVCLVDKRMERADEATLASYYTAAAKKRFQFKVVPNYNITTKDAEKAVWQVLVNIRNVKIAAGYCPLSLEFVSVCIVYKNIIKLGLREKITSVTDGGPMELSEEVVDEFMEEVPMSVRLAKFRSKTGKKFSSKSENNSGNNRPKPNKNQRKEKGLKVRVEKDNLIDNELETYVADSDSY
Experiment: cell-based or functional assay

Binder	HR to MP Rugose [HR scale 0-4]
B1	0
B2	0
B3	4
B4	4
B5	0
B6	0

Biological target: T1, Movement Protein of ToBRFV
Experiment: cell-based or functional assay
Remark: another data set of the same source

Binder	HR to MP Rugose [HR scale 0-4]
B7	0
B8	< 1
B9	0
B10	0
B11	< 1
B12	0

Biological target: T1, Movement Protein of ToBRFV
Experiment: cell-based or functional assay
Remark: another data set of the same source

Binder	HR to MP Rugose [HR scale 0-4]
B13	0
B14	< 1
B15	< 1
B16	< 1
B11	< 1
B17	< 1
B18	< 1

Biological target: T1, Movement Protein of ToBRFV
Experiment: cell-based or functional assay
Remark: another data set of the same source

Binder	HR when expressed with MP Rugose [HR scale 0-4]
B19	4
B20	4
B21	< 1
B11	< 1

Biological target: T1, Movement Protein of ToBRFV
Experiment: cell-based or functional assay
Remark: another data set of the same source

Binder	HR to MP Rugose [HR scale 0-4]
B19	3
B22	3
B23	< 1
B24	< 1
B25	< 1
B11	< 1
B26	< 1

Biological target: T1, Movement Protein of ToBRFV
Experiment: cell-based or functional assay
Remark: another data set of the same source

Binder	HR to MP Rugose [HR scale 0-4]
B19	4
B11	< 1

Biological target: T1, Movement Protein of ToBRFV
Experiment: cell-based or functional assay
Remark: another data set of the same source

Binder	HR when expressed with MP Rugose [HR scale 0-4]
B11	< 1
